Assay results taken from paper PMC7666139 (Communications Biology, 2020).
Non-standard residues stand in square brackets, D forms with d. No end group written: not given here. pY = N[C@@H](Cc1ccc(OP(=O)(O)O)cc1)C(=O)O

T1: 6xHis/Flag-tagged human SHP2 N-SH2 domain (human, UniProt Q06124 1-107)
T1 construct: human SHP2 phosphatase, N-SH2 domain, aa; 1-107; Gene synthesized; also called SHP2 SH2-N; SHP2 SH2(N) domain; source: E. coli, purified (Nickel-NTA, gel filtration)
T1 sequence (looked up): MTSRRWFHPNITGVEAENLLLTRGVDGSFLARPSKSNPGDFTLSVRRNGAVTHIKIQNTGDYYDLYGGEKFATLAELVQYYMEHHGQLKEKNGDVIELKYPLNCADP


Key:
Details in all cases: both partners purified
[1] = molecular target: T2, 6xHis-tagged HACS1 SH3 domain (human, UniProt Q9NSI8 163-224); experiment: SPR; biotinylated phosphopeptide on a streptavidin gold sensor chip (OpenSPR); analyte 20 µM to 0.1 µM in 10 mM Tris-HCl, 100 mM NaCl, pH 7.4, 0.1% bovine serum albumin, 0.005% Tween-20, 0.05% NaN3; 40 µL/min; 1:1 interaction model
T2 construct: human HACS1 SH3 domain, codon-optimized synthetic gene; Gene synthesized, in a pD441NH expression vector (ATUM); 15N-labelled in the NMR experiments; Minimal folded SH3 domain is 168-222 by the NMR structure; also called HACS SH3 domain; 6xHis-tagged SH3 domain; source: E. coli, purified (Nickel-NTA, gel filtration)

[2] = molecular target: T1, 6xHis/Flag-tagged human SHP2 N-SH2 …; experiment: as above
[3] = molecular target: T2, 6xHis-tagged HACS1 SH3 domain; experiment: ITC; 600 µM PIRB-GB1 in the syringe, 37 µM 6xHis-tagged HACS1 SH3 domain in the cell; 10 mM Tris, 50 mM NaCl, 1 mM TCEP, 0.05 NaN3, pH 7.5; single-site binding model

T2 sequence (Q9NSI8 163-224): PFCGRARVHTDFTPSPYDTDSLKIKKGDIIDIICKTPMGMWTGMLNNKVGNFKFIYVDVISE

Binder	Kd [1]	koff [1]	kon [1]	Kd [2]	koff [2]	kon [2]	Kd [3]	stoichiometry N [3]
GGQDVT[pY]AQLHSLTRLREATE (also: biotin (position not given here)) [biotinylated human PIRB derived phosphopeptide]	8.7 µM	0.017 s⁻¹	1900 M⁻¹ s⁻¹	6.7 µM	0.026 s⁻¹	3800 M⁻¹ s⁻¹		
GGQDVT[pY]AQLCSRTLRQGAAAS (also: biotin (position not given here), The leading GG may be a spacer and not part of PIRB; also called murine PIRB phospho-ITIM3 peptide; source: synthetic peptide (Genscript)) [biotinylated murine PIRB derived phosphopeptide]	15.9 µM							
LCSRTLRQGAAAS (peptide, UniProt P97484 797-809, looked up, 797-809; Methods: PIRB fragment and GB1 separated by a random 13 amino acid linker; Not phosphorylated; also called PIRB-GB1 hybrid protein; Protein GB1-tagged PIRB; source: E. coli, purified (Nickel-NTA, gel filtration); not shown: Protein G B1 domain (GB1), C-terminal, kept) [murine PIRB-GB1 fusion protein]							15.9 µM	1
